To fix the notation:
B2: CEA liberated by PIPLC from CEA-GFP transfected 293T cells (other, UniProt P06731 35-685, looked up)
chain: KLTIESTPFNVAEGKEVLLLVHNLPQHLFGYSWYKGERVDGNRQIIGYVIGTQQATPGPAYSGREIIYPNASLLIQNIIQNDTGFYTLHVIKSDLVNEEATGQFRVYPELPKPSISSNNSKPVEDKDAVAFTCEPETQDATYLWWVNNQSLPVSPRLQLSNGNRTLTLFNVTRNDTASYKCETQNPVSARRSDSVILNVLYGPDAPTISPLNTSYRSGENLNLSCHAASNPPAQYSWFVNGTFQQSTQELFIPNITVNNSGSYTCQAHNSDTGLNRTTVTTITVYAEPPKPFITSNNSNPVEDEDAVALTCEPEIQNTTYLWWVNNQSLPVSPRLQLSNDNRTLTLLSVTRNDVGPYECGIQNELSVDHSDPVILNVLYGPDDPTISPSYTYYRPGVNLSLSCHAASNPPAQYSWLIDGNIQQHTQELFISNITEKNSGLYTCQANNSASGHSRTTVKTITVSAELPKPSISSNNSKPVEDKDAVAFTCEPEAQNTTYLWWVNGQSLPVSPRLQLSNGNRTLTLFNVTRNDARAYVCGIQNSVSANRSDPVTLDVLYGPDTPIISPPDSSYLSGANLNLSCHSASNPSPQYSWRINGIPQQHTQVLFIAKITPNNNGTYACFVSNLATGRNNSIVKSITVSASGTSPGLSA
notes: Soluble form in the supernatant of PIPLC treated transfectants; also called B9 reactive material

The target of assay [1] is B2. The assay is described as follows: absorption on transfected hybridoma cells, immunoblot with mAb B9. The method, then:
(§1) CEA exists as a GPI anchored glycoprotein on the surface of IECs. This molecule can be cleaved using the enzyme PIPLC. […] Absorption of CEA by either CD4 or CD8 was determined by immunoblotting with mAb B9. […] These findings are consistent with functional properties previously ascribed to gp180.
(In general: In western blotting, separated proteins are transferred to a membrane and probed.)

The target of assay [2] is T1, human CD4 expressed on murine T cell hybridoma (3G4) (human, UniProt P01730 26-458).
T1 construct: whole, on cells
Nature of the assay: absorption of PIPLC-released CEA on transfected hybridoma cells, immunoblot with mAb B9. The method, then:
as §1

Two molecules from patent US20050053613A1 (MOUNT SINAI SCHOOL OF MEDICINE, published 2005) can be followed below.

B1: human CD8α expressed on murine T cell hybridoma (3G8) (receptor)
chain: not shown
notes: whole, on cells; also called CD8α chains
As to B1, the binding result in assay [1] was “binds”.
For B2, in assay [2], the binding result is listed as “no binding”.
